# Reference: US20190241654A1 (published 2019)
# Where “and” joins values, the source holds several entries; their conditions need not be identical. Identical values can stand only once.
# Target: T1, CD47 on CCRF-CEM cells (human, UniProt Q08722 19-323)
# T1 construct: Target is CD47 carried by the CD47-positive cell line CCRF-CEM; also called Cluster of Differentiation 47; integrin-associated protein
# Test: flow cytometry on antibody-opsonized CCRF-CEM cells, anti-human Alexa 647 secondary, median fluorescence, sigmoidal fit; Donor 1
# Procedure: Phagocytosis was assayed by serum starving the macrophages in incomplete AIM V media for two hours. During this incubation period, target cells (CCRF-CEM) from two donors (donor 1 and donor 2) were labeled with CSFE (Invitrogen, #C34554) at […] for 15 minutes at room temperature. Cells were rinsed twice with PBS (Hyclone, #SH30028.02) and resuspended at 8×10⁵/mL in AIM V media. Antibody dilutions were prepared at 0.01 ug/ml to 10 ug/ml in half log dilutions and then incubated with the target cell line for 10 minutes at room temperature (a small portion is retained for flow cytometric analysis/cell binding), after which 100 μL of target cell/antibody suspension was added to the macrophage plates. Samples were treated in triplicate and with appropriate isotype controls.
# Samples were incubated for 30 minutes at room temperature, rinsed 2× and then resuspended in FACS buffer and analyzed on the Attune. The EC50 values refer to the concentration that gives half the maximum binding measured as median fluorescent intensity, and was determined by non-linear fit of a sigmoidal dose response within the GraphPad Prism software.
# T1 sequence (Q08722 19-323): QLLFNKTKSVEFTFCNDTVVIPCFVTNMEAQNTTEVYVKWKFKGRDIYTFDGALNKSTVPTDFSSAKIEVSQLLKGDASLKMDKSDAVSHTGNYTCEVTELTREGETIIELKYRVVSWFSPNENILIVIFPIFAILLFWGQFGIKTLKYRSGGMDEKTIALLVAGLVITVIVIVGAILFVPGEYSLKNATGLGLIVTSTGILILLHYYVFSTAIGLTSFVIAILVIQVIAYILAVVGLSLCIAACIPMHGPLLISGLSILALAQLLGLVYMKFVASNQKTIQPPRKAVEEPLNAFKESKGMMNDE
row,Binder,EC50
1,"Ab356/Ab1129 (HC Ab356, LC Ab1129) anti-CD47 antibody (antibody, V domains shown, FR and CDR L2 variant of AbParental; The label order is HC/LC although the head says 'LC/HC'; r466 is used) VH: QMQLVQSGAEVKKPGSSVKVSCKASGFNIKDYYLHWVRQAPGKGLEWMGWIDPDQGDTEYAQKFQGRVTITRDRSTSTAYMELRSLRAEDTAVYYCNAAYGSSSYPMDYWGQGTTVTVSS VL: NIQMTQSPSSLSASVGDRVTITCRASQDIHRYLSWFQQKPGKVPKHLIYRHIRFVDGVPSRFSGSGSGTEFTLTISSLQPEDFATYYCLQYDEFPYTFGGGTKVEIK",0.16 µg/mL

# Target: T2, recombinant extracellular domain of CD47 (UniProt Q08722 19-139, limits assumed)
# T2 construct: extracellular domain; Analyte flowed over the captured antibodies in SPR; also called CD47-ECD
# T2 sequence (Q08722 19-139 limits assumed): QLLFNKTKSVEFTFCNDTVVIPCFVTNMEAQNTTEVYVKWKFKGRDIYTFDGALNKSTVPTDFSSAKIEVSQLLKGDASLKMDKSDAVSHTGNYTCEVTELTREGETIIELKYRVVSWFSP
# Test: SPR; antibody captured on anti-human Fc, CD47-ECD flowed 0-100 nM; 1:1 Langmuir
# Procedure: The binding kinetics of anti-CD47 antibodies to the recombinant extracellular domain of CD47 were determined by using surface Plasmon resonance (SPR, MASS-1, Sierra Sensors; T200, Biacore, GE Healthcare Life Sciences). Anti-human Fc (P/N: BR-1008-39 (GE Healthcare Life Sciences)) was immobilized on a High Capacity Amine chip (P/N: SPR-AS-HCA, Sierra sensors) or CM5-S Chip (GE Healthcare Life Sciences). CD47 antibodies were captured on Human IgG FC and CD47-ECD was flowed over the surface at various concentrations ranging from zero (for double referencing) to 100 nM. In order to determine KD's, antibodies were ranked using a 1:1 Langmuir model.
Binder,Kd,koff,kon
"Ab1119/Ab480 (antibody, V domains shown, Variant of AbParental; also called LC Ab1119 / HC Ab480) VH: QMQLVQSGAEVKKPGSSVKVSCKASGFNIKDYYLHWVRQAPGKGLEWMGWIDPDQGDTEYAQKFQGRVTITRDRSTSTAYMELRSLRAEDTAVYYCNAAYGSSSYPMDYWGQGTLVTVSS VL: NIQMTQSPSSLSASVGDRVTITCRASQDIHRYLSWFQQKPGKVPKHLIYRANRLVSGVPSRFSGSGSGTEFTLTISSLQPEDFATYYCLQYDEFPYTFGGGTKVEIK",0.564 nM,0.00577 s⁻¹,1.02e+07 M⁻¹ s⁻¹
"AbParental (parental anti-CD47 antibody) (antibody, human IgG4 S228P, kappa, V domains shown, also called Parental LC-HC; parental antibody) VH: QMQLVQSGAEVKKTGSSVKVSCKASGFNIKDYYLHWVRQAPGQALEWMGWIDPDQGDTEYAQKFQDRVTITRDRSMSTAYMELSSLRSEDTAMYYCNAAYGSSSYPMDYWGQGTTVTVSS VL: NIQMTQSPSAMSASVGDRVTITCKASQDIHRYLSWFQQKPGKVPKHLIYRANRLVSGVPSRFSGSGSGTEFTLTISSLQPEDFATYYCLQYDEFPYTFGGGTKVEIKR",0.236 nM,0.00187 s⁻¹,7.94e+06 M⁻¹ s⁻¹
"Ab1119/Ab356 (antibody, V domains shown, Variant of AbParental; also called LC Ab1119 / HC Ab356) VH: QMQLVQSGAEVKKPGSSVKVSCKASGFNIKDYYLHWVRQAPGKGLEWMGWIDPDQGDTEYAQKFQGRVTITRDRSTSTAYMELRSLRAEDTAVYYCNAAYGSSSYPMDYWGQGTTVTVSS VL: NIQMTQSPSSLSASVGDRVTITCRASQDIHRYLSWFQQKPGKVPKHLIYRANRLVSGVPSRFSGSGSGTEFTLTISSLQPEDFATYYCLQYDEFPYTFGGGTKVEIK",0.635 nM and 0.599 nM,0.00647 s⁻¹ and 0.0059 s⁻¹,1.02e+07 M⁻¹ s⁻¹ and 9.85e+06 M⁻¹ s⁻¹
"Ab1119/Ab170 (antibody, V domains shown, Variant of AbParental; also called LC Ab1119 / HC Ab170) VH: QMQLVQSGAEVKKPGSSVKVSCKASGFNIKDYYLHWVRQAPGKGLEWMGWIDPDQGDTEYAQKFQGRVTITRDRSTSTAYMELRSLRSEDTAVYYCNAAYGSSSYPMDYWGQGTTVTVSS VL: NIQMTQSPSSLSASVGDRVTITCRASQDIHRYLSWFQQKPGKVPKHLIYRANRLVSGVPSRFSGSGSGTEFTLTISSLQPEDFATYYCLQYDEFPYTFGGGTKVEIK",0.562 nM,0.00583 s⁻¹,1.04e+07 M⁻¹ s⁻¹
"Ab480/Ab1122 (antibody, V domains shown, FR and CDR L2 variant; Label printed HC first; r445 used; also called HC Ab480 / LC Ab1122) VH: QMQLVQSGAEVKKPGSSVKVSCKASGFNIKDYYLHWVRQAPGKGLEWMGWIDPDQGDTEYAQKFQGRVTITRDRSTSTAYMELRSLRAEDTAVYYCNAAYGSSSYPMDYWGQGTLVTVSS VL: NIQMTQSPSSLSASVGDRVTITCRASQDIHRYLSWFQQKPGKVPKHLIYRYERFVDGVPSRFSGSGSGTEFTLTISSLQPEDFATYYCLQYDEFPYTFGGGTKVEIK",4.68 nM,0.0109 s⁻¹,2.33e+06 M⁻¹ s⁻¹
"Ab356/Ab1121 (antibody, V domains shown, FR and CDR L2 variant; Label printed HC first; the entry in numeric order (r442) is used; also called HC Ab356 / LC Ab1121) VH: QMQLVQSGAEVKKPGSSVKVSCKASGFNIKDYYLHWVRQAPGKGLEWMGWIDPDQGDTEYAQKFQGRVTITRDRSTSTAYMELRSLRAEDTAVYYCNAAYGSSSYPMDYWGQGTTVTVSS VL: NIQMTQSPSSLSASVGDRVTITCRASQDIHRYLSWFQQKPGKVPKHLIYRYIRFVDGVPSRFSGSGSGTEFTLTISSLQPEDFATYYCLQYDEFPYTFGGGTKVEIK",1.08 nM,0.00272 s⁻¹,2.53e+06 M⁻¹ s⁻¹
"Ab495/Ab356 (antibody, V domains shown, also called LC Ab495 / HC Ab356) VH: QMQLVQSGAEVKKPGSSVKVSCKASGFNIKDYYLHWVRQAPGKGLEWMGWIDPDQGDTEYAQKFQGRVTITRDRSTSTAYMELRSLRAEDTAVYYCNAAYGSSSYPMDYWGQGTTVTVSS VL: NIQMTQSPSSLSASVGDRVTITCKASQDIHRYLSWYQQKPGKAPKHLIYRANRLVSGVPSRFSGSGSGTEFTLTISSLQPEDFATYYCLQYDEFPYTFGGGTKVEIK",1.36 nM,0.00426 s⁻¹,3.13e+06 M⁻¹ s⁻¹

# Target: T1, CD47 on CCRF-CEM cells
# Test: cell-based or functional assay
row,Binder,"Phagocytosis EC50 (ug/mL), Donor 1"
1,"Ab356/Ab1129 (HC Ab356, LC Ab1129) anti-CD47 antibody (antibody, V domains shown, FR and CDR L2 variant of AbParental; The label order is HC/LC although the head says 'LC/HC'; r466 is used) VH: QMQLVQSGAEVKKPGSSVKVSCKASGFNIKDYYLHWVRQAPGKGLEWMGWIDPDQGDTEYAQKFQGRVTITRDRSTSTAYMELRSLRAEDTAVYYCNAAYGSSSYPMDYWGQGTTVTVSS VL: NIQMTQSPSSLSASVGDRVTITCRASQDIHRYLSWFQQKPGKVPKHLIYRHIRFVDGVPSRFSGSGSGTEFTLTISSLQPEDFATYYCLQYDEFPYTFGGGTKVEIK",12.8 µg/mL
